Tests used:
[1] = target: T1, recombinant cyno monkey PCSK9 protein (cyno monkey, UniProt A8T666 31-692 (rhesus entry), limits assumed, biotinylated in the ELISA assays); test: ELISA; antibody 66.67 nM
T1 construct: also called cyno PCSK9; Cyno Monkey PCSK9-His

[2] = target: T2, recombinant human PCSK9-His protein (Immunogen A) (human, UniProt Q8NBP7 31-692, limits assumed, biotinylated in the ELISA assays); test: ELISA of PCSK9 binding to LDLR ECD; antibody 0 nM
T2 construct: also called hPCSK9-His; His-tagged hPCSK9; not shown: His tag

[3] = target: T2, recombinant human PCSK9-His protein …; test: ELISA of PCSK9 binding to LDLR ECD; antibody 8 nM
[4] = target: T1, recombinant cyno monkey PCSK9 protein; test: ELISA; antibody 0 nM
[5] = target: T2, recombinant human PCSK9-His protein …; test: ELISA; antibody 0.67 nM
[6] = target: T2, recombinant human PCSK9-His protein …; test: ELISA of PCSK9 binding to LDLR ECD; antibody 40 nM
[7] = target: T1, recombinant cyno monkey PCSK9 protein; test: ELISA; antibody 0.67 nM
[8] = target: T2, recombinant human PCSK9-His protein …; test: ELISA; antibody 0 nM
[9] = target: T2, recombinant human PCSK9-His protein …; test: ELISA; antibody 0.00067 nM
[10] = target: T2, recombinant human PCSK9-His protein …; test: ELISA; antibody 0.000067 nM
[11] = target: T2, recombinant human PCSK9-His protein …; test: ELISA of PCSK9 binding to LDLR ECD; antibody 0.01 nM
[12] = target: T1, recombinant cyno monkey PCSK9 protein; test: ELISA; antibody 0.067 nM
[13] = target: T2, recombinant human PCSK9-His protein …; test: ELISA of PCSK9 binding to LDLR ECD; antibody 0.06 nM
[14] = target: T2, recombinant human PCSK9-His protein …; test: BLI, Octet Red 96; antibody on AHC sensor
Method: Dissociation constants were determined by Octed red 96 (Fortiebio). The detailed operation and methods were followed according to the specifications of the instrument provided by the manufacturer. Briefly, an AHC sensor (Anti-human Fc sensor, Fortiebio) was used for the affinity determination. The anti-PCSK9 antibody was diluted to 10 ug/mL in PBS buffer (pH7.4) containing 0.1% (w/w) BSA and 0.02% (v/v) Tween 20 and incubated with the AHC sensor. […] The reaction mixture was further incubated in PBS buffer (pH7.4) containing 0.1% (v/w) BSA and 0.02% (v/v) Tween 20 at 30° C. for 5 minutes.

[15] = target: T2, recombinant human PCSK9-His protein …; test: ELISA; antibody 6.67 nM
[16] = target: T1, recombinant cyno monkey PCSK9 protein; test: ELISA; antibody 0.00067 nM
[17] = target: T1, recombinant cyno monkey PCSK9 protein; test: ELISA; antibody 0.000067 nM
[18] = target: T2, recombinant human PCSK9-His protein …; test: ELISA; antibody 0.067 nM
[19] = target: T2, recombinant human PCSK9-His protein …; test: ELISA of PCSK9 binding to LDLR ECD; antibody 0.32 nM
[20] = target: T2, recombinant human PCSK9-His protein …; test: ELISA; antibody 0.0067 nM
[21] = target: T1, recombinant cyno monkey PCSK9 protein; test: ELISA; antibody 0.0067 nM
[22] = target: T2, recombinant human PCSK9-His protein …; test: ELISA; antibody 66.67 nM
[23] = target: T2, recombinant human PCSK9-His protein …; test: ELISA of PCSK9 binding to LDLR ECD; antibody 1.6 nM
[24] = target: T1, recombinant cyno monkey PCSK9 protein; test: ELISA; antibody 6.67 nM
[25] = target: T2, recombinant human PCSK9-His protein …; test: ELISA of PCSK9 binding to LDLR ECD; antibody 200 nM
[26] = target: T2, recombinant human PCSK9-His protein …; test: SPR, Biacore T200; antibody captured by anti-human Fc
Method: Anti-human Fc IgG was immobilized on flow cells 1 and 2: HBS-EP+(10 mM HEPES, 150 mM NaCl, 3 mM EDTA, 0.05% P20, pH 7.4) was used as running buffer, and the immobilization of anti-human Fc IgG was carried out using the immobilization wizard template. Flow cells 1 and 2 of a Series S CM5 sensor chip were activated with freshly-mixed 50 mmol/L NHS and 200 mmol/L EDC. 20 ug/mL of anti-human Fc IgG diluted in 10 mM NaAC (pH 4.5) was injected into the activated flow cells 1 and 2. The remaining active coupling sites were blocked with 1M ethanolamine.
KD measurements were carried out with HBS-EP+ as the running buffer. Each antibody was injected over the CM5 sensor flow cell 2 with a flow rate of 10 uL/min to reach response 230 RU. […] Buffer flow was maintained for 400 seconds for dissociation measurements (30 uL/min). To remove the tested antibody from the surface, 10 mM glycine-HCl pH 1.5 was injected for 20 seconds (30 ulJmin). Flow cell 1 was used as reference flow cell. […] The KD value for each antibody was evaluated using Biacore T200 evaluation software 1.0, and the data was fit with a 1:1 binding model.

T1 sequence (A8T666 31-692 limits assumed): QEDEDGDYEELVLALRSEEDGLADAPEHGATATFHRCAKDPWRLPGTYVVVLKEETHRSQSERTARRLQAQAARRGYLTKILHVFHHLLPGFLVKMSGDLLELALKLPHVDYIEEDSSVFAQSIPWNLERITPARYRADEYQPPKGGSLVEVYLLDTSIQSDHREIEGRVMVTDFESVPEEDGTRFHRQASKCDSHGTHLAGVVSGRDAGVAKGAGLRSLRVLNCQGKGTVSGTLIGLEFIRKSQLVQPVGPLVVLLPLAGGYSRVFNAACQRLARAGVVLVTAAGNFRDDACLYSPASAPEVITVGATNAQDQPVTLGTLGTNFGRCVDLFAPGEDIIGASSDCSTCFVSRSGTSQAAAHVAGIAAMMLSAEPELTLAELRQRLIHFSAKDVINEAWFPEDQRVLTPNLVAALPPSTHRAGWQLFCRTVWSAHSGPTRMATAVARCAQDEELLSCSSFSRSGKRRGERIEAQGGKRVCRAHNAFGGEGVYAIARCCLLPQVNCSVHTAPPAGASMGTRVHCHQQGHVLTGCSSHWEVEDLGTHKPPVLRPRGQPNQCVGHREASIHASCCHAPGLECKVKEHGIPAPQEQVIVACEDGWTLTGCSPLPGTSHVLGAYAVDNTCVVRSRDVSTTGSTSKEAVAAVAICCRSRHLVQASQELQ

| Binder | OD450 nm [1] [OD450 nm] | OD450 nm [2] [OD450 nm] | OD450 nm [3] [OD450 nm] | OD450 nm [4] [OD450 nm] | OD450 nm [5] [OD450 nm] | OD450 nm [6] [OD450 nm] | OD450 nm [7] [OD450 nm] | OD450 nm [8] [OD450 nm] | OD450 nm [9] [OD450 nm] | OD450 nm [10] [OD450 nm] | OD450 nm [11] [OD450 nm] | OD450 nm [12] [OD450 nm] | OD450 nm [13] [OD450 nm] | Kd [14] [nM] | OD450 nm [15] [OD450 nm] | OD450 nm [16] [OD450 nm] | OD450 nm [17] [OD450 nm] | OD450 nm [18] [OD450 nm] | OD450 nm [19] [OD450 nm] | OD450 nm [20] [OD450 nm] | other results |
| --- | --- | --- | --- | --- | --- | --- | --- | --- | --- | --- | --- | --- | --- | --- | --- | --- | --- | --- | --- | --- | --- |
| 74C10A8, fully human anti-PCSK9 antibody (antibody, human IgG1, V domains shown) VH: QVQLQESGPGLVKPSETLSLTCSVSGGSINTYYWSWIRQPPGKGLEWIGYIYYSGSTNYNPSLKSRVTISVDTSKNQFSLKLTSVTAADTAVYYCARERFTMVRGVMMDYYYYGMDVWGQGTTVTVSS VL: DIQLTQSPSFLSASVGDRVTITCRASQGISSYLAWYQQKPGKAPKLLIYAASTLQSGVPSRFSGSGSGTEFTLTISSLQPEDFATYYCQQLNSYPRTFGQGTKVEIK | 2.86 | 2.4 | 1.76 | 0.06 | 3 | 1.43 | 2.1 | 0.06 | 0.08 | 0.06 | 2.31 | 0.48 | 2.28 | 14.5 | 3.04 | 0.06 | 0.13 | 1.52 | 2.32 | 0.23 | OD450 nm [21]: 0.11 OD450 nm; OD450 nm [22]: 3.04 OD450 nm; OD450 nm [23]: 2.19 OD450 nm; OD450 nm [24]: 2.73 OD450 nm; OD450 nm [25]: 1.41 OD450 nm |
| 139G1C5, fully human anti-PCSK9 antibody (antibody, human IgG1, V domains shown) VH: QVQLQESGPGLVKPSGTLSLTCAVSGGSISRNNWWSWVRQPPGKGLEWIGEIYHSGSTNYNPSLKSRVTISVDKSKNQFSLKLSSVTAADTAVYYCARDLLGIGLDYWGQGTLVTVSS VL: EFVLTQSPATLSLSPGERAILSCRASQSFSSYIAWYQQKPGQAPRLLIYDASNRATGIPARFSGSGSGTDFTLTISSLEPEDFAVYYCQQHSNWMYTFGQGTKLEIK | 3 | 2.31 | 1.57 | 0.06 | 3.05 | 1.35 | 3 | 0.06 | 0.08 | 0.06 | 2.33 | 1.84 | 2.31 | 0.63 | 3.06 | 0.08 | 0.08 | 1.7 | 2.28 | 0.26 | Kd [26]: 0.0709 nM; koff [26]: 2.4e-05 s⁻¹; kon [26]: 240000 M⁻¹ s⁻¹; koff [14]: 0.000161 s⁻¹; kon [14]: 254000 M⁻¹ s⁻¹; OD450 nm [21]: 0.29 OD450 nm; OD450 nm [22]: 3.04 OD450 nm; OD450 nm [23]: 2.16 OD450 nm; OD450 nm [24]: 3.01 OD450 nm; OD450 nm [25]: 1.29 OD450 nm |
| 152G2F7, fully human anti-PCSK9 antibody (antibody, human IgG1, V domains shown) VH: EVQLVESGGGLVQPGGSLRLSCAASEFTFGGYWMTWVRQAPGKGLEWVANIKQDGSEKYYVDSVKGRFTISRDNAKNSLYLHMNSLRAEDTAVYYCARDRTTMIRGVSLYYYYYGMDVWGQGTAVTVSS VL: EIVLTQSPATLSLSPGERATLSCRASQSVSSYLAWYQQKPGQAPRLLIYDASNRATGIPARFSGSGSGTDFTLTISSLEPEDFAVYYCQQRSNWPLTFGGGTKVEIK | 2.97 | 2.29 | 1.86 | 0.06 | 2.91 | 1.31 | 1.56 | 0.06 | 0.07 | 0.06 | 2.27 | 0.26 | 2.25 | 2.69 | 3.12 | 0.06 | 0.07 | 0.94 | 2.31 | 0.15 | koff [14]: 0.000453 s⁻¹; kon [14]: 168000 M⁻¹ s⁻¹; OD450 nm [21]: 0.08 OD450 nm; OD450 nm [22]: 3.07 OD450 nm; OD450 nm [23]: 2.19 OD450 nm; OD450 nm [24]: 2.89 OD450 nm; OD450 nm [25]: 1.32 OD450 nm |
